According to publication PMC4612572:

B1: Aurora A (enzyme)
chain: MDRSKENCISGPVKATAPVGGPKRVLVTQQFPCQNPLPVNSGQAQRVLCPSNSSQRIPLQAQKLVSSHKPVQNQKQKQLQATSVPHPVSRPLNNTQKSKQPLPSAPENNPEEELASKQKNEESKKRQWALEDFEIGRPLGKGKFGNVYLAREKQSKFILALKVLFKAQLEKAGVEHQLRREVEIQSHLRHPNILRLYGYFHDATRVYLILEYAPLGTVYRELQKLSKFDEQRTATYITELANALSYCHSKRVIHRDIKPENLLLGSAGELKIADFGWSVHAPSSRRTTLCGTLDYLPPEMIEGRMHDEKVDLWSLGVLCYEFLVGKPPFEANTYQETYKRISRVEFTFPDFVTEGARDLISRLLKHNPSQRPMLREVLEHPWITANSSKPSNCQNKESASKQS

Experiments:
[1] = target: p766-Gravin (human (endogenous in U2OS; cells of Figure 2E-H not stated)) (UniProt Q02952); test: proximity ligation; in situ PLA in U2OS cells stably expressing the mother centriole marker myc-centriolin; signal at the mother spindle pole relative to the daughter spindle pole
[2] = target: p766-Gravin (human (endogenous in U2OS; cells of Figure 2E-H not stated)) (UniProt Q02952); test: proximity ligation; in situ PLA with antibodies to p766-Gravin and to Aurora A or Plk1 in fixed cells at different stages of the cell cycle; integrated signal per cell normalised to interphase cells; n = 3 experiments
[3] = target: Gravin (human (endogenous in HEK293)) (UniProt Q02952)

| Molecule | fold PLA signal, mother against daughter spindle pole [1] [fold] | fold PLA signal, metaphase against interphase cells [2] [fold] | Kemptide (300 uM) phosphorylation (32P incorporation) in Gravin immune complexes isolated from mitotic lysates; share blocked by the Aurora A inhibitor VX-680 [3] [%] | fold PLA puncta, mother against daughter spindle pole [1] [fold] |
| --- | --- | --- | --- | --- |
| polo-like kinase 1 (from UniProt P53350 1-603) (enzyme) | 2.35 | 10.3 |  |  |
| B1 |  | 3.86 | 33.5 | 4.16 |
